From PMC9918506, “Structural insights into pathogenic mechanism of hypohidrotic ectodermal dysplasia caused by ectodysplasin A variants” (Nature Communications, 2023)

B3: EDA·A1 TNF homology domain (EDA·A1THD, residues 233–391), wild type (domain or fragment, human, UniProt Q92838 233-391, looked up)
chain: GPSGAADKAGTRENQPAVVHLQGQGSAIQVKNDLSGGVLNDWSRITMNPKVFKLHPRSGELEVLVDGTYFIYSQVEVYYINFTDFASYEVVVDEKPFLQCTRSIETGKTNYNTCYTAGVCLLKARQKIAVKMVHADISINMSKHTTFFGAIRLGEAPAS
notes: ectodysplasin A, splice form EDA·A1 (with Val307-Glu308), human, THD residues 233-391; Optimized cDNA in pMAL-c2x; MBP removed with 3C protease; Trimer in the crystal structure; also called WT EDA·A1THD; ectodysplasin A THD; source: E. coli BL21 CodonPlus (DE3), purified (amylose, Superdex 200, 3C cleavage, Mono-S, Superdex 200); not shown: MBP, N-terminal, cleaved

Experiments:
[1] = target: EDA·A1THD (residues 233–391) R276C (human, UniProt Q92838 233-391, R276C); experiment: SPR
[2] = target: B3; experiment: SPR; WT and mutant EDA·A1THD immobilised on CM5 chips, EDAR_(CRDS) serially diluted and injected; Biacore 8K; 10 mM HEPES pH 7.5, 150 mM NaCl, 3 mM EDTA, 25 °C; steady-state analysis at equilibrium; settings: both partners purified
[3] = target: T1, EDA·A1 TNF homology domain (EDA·A1THD, residues 233-391) (human, UniProt Q92838 233-391); experiment: SEC; gel filtration on a Superdex 200 analytical column, fractions on SDS-PAGE; EDA·A1THD alone, EDAR_(CRDS) alone and the mixture; settings: both partners purified
T1 construct: ectodysplasin A, splice form EDA·A1, human, TNF homology domain, residues 233-391; MBP removed with 3C protease; codon-optimised cDNA in pMAL-c2x; Trimer in the crystal structure; also called EDATHD; ectodysplasin A; source: E. coli BL21 CodonPlus (DE3), purified (amylose beads, Superdex 200, Mono-S, Superdex 200 increase); not shown: MBP, N-terminal, cleaved
T1 sequence (looked up): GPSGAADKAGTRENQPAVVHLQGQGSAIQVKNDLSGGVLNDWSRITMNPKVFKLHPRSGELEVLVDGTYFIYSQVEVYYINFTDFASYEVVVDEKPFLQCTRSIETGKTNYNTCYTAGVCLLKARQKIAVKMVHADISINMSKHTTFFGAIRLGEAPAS

[4] = target: the molecule itself; experiment: crystal structure; EDA·A1THD and EDAR_(CRDS) mixed at a molar ratio of 1:1; crystals in 25% PEG-6000, 0.1 M BICINE pH 9.0, 4 °C; 2.8 Å

B1: EDAR cysteine-rich domains (EDAR_(CRDS), residues 30–150), MBP tag removed (domain or fragment, human)
chain: GGSGGSGGSGGSNCGENEYYNQTTGLCQECPPCGPGEEPYLSCGYGTKDEDYGCVPCPAEKFSKGGYQICRRHKDCEGFFRATVLTPGDMENDAECGPCLPGYYMLENRPRNIYGMVCYSCLLAPPNTKECVG
notes: EDAR (ectodysplasin A receptor), human, cysteine-rich domains CRD1-CRD3, residues 30-150; Construct: EDAR signal peptide (residues 1-28), MBP, 3C site, linker, EDAR 30-150; That the linker stays on the protein after 3C cleavage follows only from the order in which the methods list the elements; also called ectodomains of EDAR; source: Hi5 insect cells (baculovirus), secreted, purified (amylose, …)
For B1, the Kd [1] was 35.9 nM and the Kd [2] was 18.5 nM.

B2: EDAR cysteine-rich domains (EDAR_(CRDS), residues 30-150) (domain or fragment, human, UniProt Q9UNE0 30-150, looked up)
chain: NCGENEYYNQTTGLCQECPPCGPGEEPYLSCGYGTKDEDYGCVPCPAEKFSKGGYQICRRHKDCEGFFRATVLTPGDMENDAECGPCLPGYYMLENRPRNIYGMVCYSCLLAPPNTKECVG
notes: EDAR, human, N-terminal cysteine-rich domains, residues 30-150; MBP removed with 3C protease; also called EDAR ectodomain; source: Hi5 insect cells (baculovirus), secreted, purified (amylose beads, Mono-Q, Superdex 200); not shown: MBP, N-terminal, cleaved
B2: binds [3].

With B3 the “stoichiometry N” value [4] was 3.
